Tests used:
[1] = target: T1, ALK-4 (transfected cDNA, on cells) (UniProt P36896 24-505, limits assumed); experiment: affinity cross-linking of ^125I-OP1 to COS-1 cells transfected with ALK4 and daf-4 cDNA; immunoprecipitation with ALK antiserum, autoradiography
T1 construct: whole, on cells
T1 sequence (looked up): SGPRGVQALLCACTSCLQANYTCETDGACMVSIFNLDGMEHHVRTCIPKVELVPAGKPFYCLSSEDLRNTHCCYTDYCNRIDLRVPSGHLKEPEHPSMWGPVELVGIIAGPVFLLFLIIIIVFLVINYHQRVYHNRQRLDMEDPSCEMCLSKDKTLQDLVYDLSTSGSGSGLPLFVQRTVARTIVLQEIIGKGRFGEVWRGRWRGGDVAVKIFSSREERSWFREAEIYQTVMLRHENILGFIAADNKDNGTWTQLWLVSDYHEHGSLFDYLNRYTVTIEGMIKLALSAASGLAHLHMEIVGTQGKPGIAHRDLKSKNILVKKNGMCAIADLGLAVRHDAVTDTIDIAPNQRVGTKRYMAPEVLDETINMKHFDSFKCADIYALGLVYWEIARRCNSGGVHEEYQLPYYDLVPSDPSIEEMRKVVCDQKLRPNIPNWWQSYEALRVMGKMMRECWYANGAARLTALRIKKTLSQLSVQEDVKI
Description: (§1) Briefly, cells in multi-well plates were washed with binding buffer (e.g., phosphate buffered saline containing 0.9 mM CaCl₂, 0.49 mM MgCl₂ and 1 mg/ml bovine serum albumin (BSA)), incubated on ice in the same buffer with labelled ligand, in the presence and absence of excess unlabelled ligand for sufficient time for the reaction to equilibrate (e.g., 3 hours.) Cells were washed and the crosslinking was done in the binding buffer without BSA together with 0.28 mM disuccinimidyl suberate for 15 min on ice. […] Cells were centrifuged again and supernatants subjected to analysis by standard SDS-gel electrophoresis using 4%-15% polyacrylamide gels, followed by autoradiography.
(§2) The gels were fixed and dried, and then subjected to autoradiography or analysis using phosphorimager (Molecular Dynamics).
(§3) In the Table, “N/T” means “not tested”. […] The values represented by “+/−”, “+”, “++”, “+++”, and “−”, are all qualitative descriptors of the relative amount of radioactivity measured when the crosslinked molecules were gel electrophoresed and subjected to autoradiography.

[2] = target: T2, ALK-5 (transfected cDNA, on cells) (UniProt P36897 34-503, limits assumed); experiment: affinity cross-linking of ^125I-OP1 to COS-1 cells transfected with ALK5 and daf-4 cDNA; immunoprecipitation with ALK antiserum, autoradiography
T2 construct: whole, on cells
T2 sequence (looked up): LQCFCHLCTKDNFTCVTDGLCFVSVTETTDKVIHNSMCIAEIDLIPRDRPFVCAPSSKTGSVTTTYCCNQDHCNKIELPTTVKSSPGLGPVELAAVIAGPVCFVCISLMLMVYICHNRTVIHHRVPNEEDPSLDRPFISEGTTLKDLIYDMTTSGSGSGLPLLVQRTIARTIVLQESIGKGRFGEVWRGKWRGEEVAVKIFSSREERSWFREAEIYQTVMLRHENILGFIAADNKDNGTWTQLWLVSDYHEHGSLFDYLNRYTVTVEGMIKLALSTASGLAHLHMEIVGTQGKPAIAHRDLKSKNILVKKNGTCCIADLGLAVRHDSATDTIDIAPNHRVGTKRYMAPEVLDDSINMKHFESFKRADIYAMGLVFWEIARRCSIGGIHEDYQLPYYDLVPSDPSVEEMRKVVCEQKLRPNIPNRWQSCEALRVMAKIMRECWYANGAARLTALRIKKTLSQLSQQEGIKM
Description: as §1, §2, §3

[3] = target: ALK-1 (transfected cDNA, on cells) (Homo sapiens (Human), UniProt P37023 22-503); experiment: affinity cross-linking of ^125I-BMP4 to COS-1 cells transfected with ALK1 and daf-4 cDNA; immunoprecipitation with ALK antiserum, autoradiography
Description: as §1, §2, §3

[4] = target: T3, ALK-2 (transfected cDNA, on cells) (Homo sapiens (Human), UniProt Q04771 21-509); experiment: affinity cross-linking of ^125I-BMP4 to COS-1 cells transfected with ALK2 and daf-4 cDNA; immunoprecipitation with ALK antiserum, autoradiography
T3 construct: Expressed from cDNA in COS-1 cells or in Mv1Lu R mutant cells
T3 sequence: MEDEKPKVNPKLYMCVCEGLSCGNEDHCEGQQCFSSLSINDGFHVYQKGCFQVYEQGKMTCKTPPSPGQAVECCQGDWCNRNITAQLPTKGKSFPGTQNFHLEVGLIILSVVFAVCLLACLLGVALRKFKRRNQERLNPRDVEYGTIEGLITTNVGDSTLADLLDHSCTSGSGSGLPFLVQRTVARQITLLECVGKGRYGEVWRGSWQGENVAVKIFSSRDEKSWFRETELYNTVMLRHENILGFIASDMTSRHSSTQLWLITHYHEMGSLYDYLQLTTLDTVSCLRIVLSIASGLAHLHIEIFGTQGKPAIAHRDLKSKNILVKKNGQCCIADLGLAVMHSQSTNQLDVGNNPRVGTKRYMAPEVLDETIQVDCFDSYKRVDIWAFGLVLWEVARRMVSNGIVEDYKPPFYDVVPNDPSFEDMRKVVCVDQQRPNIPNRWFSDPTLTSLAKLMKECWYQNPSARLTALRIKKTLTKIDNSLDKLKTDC
Description: as §1, §2, §3

[5] = target: T1, ALK-4 (transfected cDNA, on cells); experiment: affinity cross-linking of ^125I-BMP4 to COS-1 cells transfected with ALK4 and daf-4 cDNA; immunoprecipitation with ALK antiserum, autoradiography
Description: as §1, §2, §3

[6] = target: T2, ALK-5 (transfected cDNA, on cells); experiment: affinity cross-linking of ^125I-BMP4 to COS-1 cells transfected with ALK5 and daf-4 cDNA; immunoprecipitation with ALK antiserum, autoradiography
Description: as §1, §2, §3

Measured: binding result

Chain of ALK-1 (transfected cDNA, on cells) (P37023 22-503 S172T limits assumed): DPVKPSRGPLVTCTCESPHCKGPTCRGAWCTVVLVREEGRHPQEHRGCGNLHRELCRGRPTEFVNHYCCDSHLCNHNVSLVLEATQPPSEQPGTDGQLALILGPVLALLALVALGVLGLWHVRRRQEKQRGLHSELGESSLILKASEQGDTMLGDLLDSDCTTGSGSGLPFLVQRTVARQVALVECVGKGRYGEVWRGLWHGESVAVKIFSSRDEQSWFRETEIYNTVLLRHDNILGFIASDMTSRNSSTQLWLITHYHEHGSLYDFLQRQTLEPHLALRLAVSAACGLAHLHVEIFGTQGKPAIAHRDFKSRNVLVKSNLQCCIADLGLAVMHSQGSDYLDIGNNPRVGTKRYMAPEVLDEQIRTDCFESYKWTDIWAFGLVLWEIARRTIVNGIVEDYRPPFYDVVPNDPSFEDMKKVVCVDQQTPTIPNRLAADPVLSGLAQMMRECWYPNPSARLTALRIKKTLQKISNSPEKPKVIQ

B1: OP-1 (osteogenic protein-1) (ligand)
chain: STGSKQRSQNRSKTPKNQEALRMANVAENSSSDQRQACKKHELYVSFRDLGWQDWIIAPEGYAAYYCEGECAFPLNSYMNATNHAIVQTLVHFINPETVPKPCCAPTQLNAISVLYFDDSSNVILKKYRNMVVRACGCH
modifications: ^125I label (radioiodinated, residue not stated); unlabeled when used as competitor
no binding: [1] | [2]

B2: BMP-4 (ligand, UniProt P12644 293-408, looked up)
chain: SPKHHSQRARKKNKNCRRHSLYVDFSDVGWNDWIVAPPGYQAFYCHGDCPFPLADHLNSTNHAIVQTLVNSVNSSIPKACCVPTELSAISMLYLDEYDKVVLKNYQEMVVEGCGCR
modifications: ^125I label (radioiodinated, residue not stated)
no binding: [3] | [4] | [5] | [6]

Source: patent US20020155500A1 (CURIS, published 2002)
